Source: EP0980526B1 (IMPERIAL CANCER RESEARCH TECHNOLOGY LIMITED, dated 1998)

Target: T1, AAD-ER (acidic activation domain fused to the LBD of the wild-type ER) (human, UniProt P03372 282-595)
T1 construct: range 282-595; Yeast two-hybrid prey; tested with or without 10^-7 M 17-beta-estradiol (E2); also called LBD of the ER; ER LBD
T1 sequence (looked up): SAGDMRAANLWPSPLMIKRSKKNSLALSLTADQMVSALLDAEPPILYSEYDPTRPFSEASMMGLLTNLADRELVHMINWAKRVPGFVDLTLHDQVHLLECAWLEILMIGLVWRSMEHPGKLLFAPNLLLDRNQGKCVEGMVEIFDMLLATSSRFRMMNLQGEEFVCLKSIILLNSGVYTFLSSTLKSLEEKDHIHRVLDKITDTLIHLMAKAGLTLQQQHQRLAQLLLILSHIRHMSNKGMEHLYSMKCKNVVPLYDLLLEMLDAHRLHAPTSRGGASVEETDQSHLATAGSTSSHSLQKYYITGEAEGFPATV
Assay: yeast two-hybrid

B1: DBD alone (other, human, UniProt P03372 176-282, looked up)
chain: MESAKETRYCAVCNDYASGYHYGVWSCEGCKAFFKRSIQGHNDYMCPATNQCTIDKNRRKSCQACRLRKCYEVGMMKGGIRKDRRGGRMLKHKRQRDDGEGRGEVGS
notes: Two-hybrid bait control without a motif
- binding result: no binding
